From article PMC8437784 (The Journal of Biological Chemistry, 2020) come the findings set out here.

B2: Recombinant N-terminal His6-tagged TRF1 (from human) (natural protein, UniProt P54274 1-439, looked up)
chain: MAEDVSSAAPSPRGCADGRDADPTEEQMAETERNDEEQFECQELLECQVQVGAPEEEEEEEEDAGLVAEAEAVAAGWMLDFLCLSLCRAFRDGRSEDFRRTRNSAEAIIHGLSSLTACQLRTIYICQFLTRIAAGKTLDAQFENDERITPLESALMIWGSIEKEHDKLHEEIQNLIKIQAIAVCMENGNFKEAEEVFERIFGDPNSHMPFKSKLLMIISQKDTFHSFFQHFSYNHMMEKIKSYVNYVLSEKSSTFLMKAAAKVVESKRTRTITSQDKPSGNDVEMETEANLDTRKSVSDKQSAVTESSEGTVSLLRSHKNLFLSKLQHGTQQQDLNKKERRVGTPQSTKKKKESRRATESRIPVSKSQPVTPEKHRARKRQAWLWEEDKNLRSGVRKYGEGNWSKILLHYKFNNRTSVMLKDRWRTMKKLKLISSDSED

Data set [1] has as its target B2. The data set is described as follows: DNA tightrope assay.
In data set [2] the target is T1, Recombinant N-terminal His6-tagged TRF1 (from human) (human), P54274.
T1 chain: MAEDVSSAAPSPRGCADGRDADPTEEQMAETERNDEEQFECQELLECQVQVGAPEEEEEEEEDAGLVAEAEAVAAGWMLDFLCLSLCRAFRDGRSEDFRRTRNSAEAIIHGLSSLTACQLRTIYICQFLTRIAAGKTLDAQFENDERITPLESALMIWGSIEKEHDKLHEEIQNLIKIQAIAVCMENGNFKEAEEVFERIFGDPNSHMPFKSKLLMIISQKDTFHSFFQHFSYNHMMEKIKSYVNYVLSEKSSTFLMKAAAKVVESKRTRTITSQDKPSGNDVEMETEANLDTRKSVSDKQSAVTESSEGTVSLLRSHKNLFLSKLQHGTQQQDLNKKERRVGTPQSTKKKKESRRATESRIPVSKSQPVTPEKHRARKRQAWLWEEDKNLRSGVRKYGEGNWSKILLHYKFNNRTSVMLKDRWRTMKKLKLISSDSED
Briefly: AFM volume analysis. Conditions: remark: other sources report otherwise.

For data set [3], the target named is T2, N-terminal HA-tagged TIN2L (HA-TIN2L, 1-451 aa) (human, UniProt Q9BSI4-1 1-451).
T2 sequence (looked up): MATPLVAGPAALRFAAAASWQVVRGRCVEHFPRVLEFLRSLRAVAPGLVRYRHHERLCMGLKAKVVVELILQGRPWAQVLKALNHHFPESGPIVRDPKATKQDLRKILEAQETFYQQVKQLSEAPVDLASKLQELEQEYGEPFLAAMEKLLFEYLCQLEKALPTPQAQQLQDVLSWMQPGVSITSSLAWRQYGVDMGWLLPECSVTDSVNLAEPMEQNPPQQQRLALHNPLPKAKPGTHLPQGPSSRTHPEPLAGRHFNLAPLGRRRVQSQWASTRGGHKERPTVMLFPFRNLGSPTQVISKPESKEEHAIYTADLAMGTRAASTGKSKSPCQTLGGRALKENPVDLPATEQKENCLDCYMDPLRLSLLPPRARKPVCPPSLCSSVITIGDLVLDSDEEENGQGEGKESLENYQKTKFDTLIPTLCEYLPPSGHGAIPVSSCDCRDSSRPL
The data set is described as follows: DNA tightrope assay.

The target in the next data set is TRF1;TIN2S (human;human?, UniProt P54274;Q9BSI4-2 1-439;1-354, |). The data set is described as follows: EMSA.
The target of the next data set is TRF1;TIN2L (human;human?, UniProt P54274;Q9BSI4 1-439;1-451, |). The data set is described as follows: EMSA. Background: In EMSA bound probe runs differently from free probe, usually more slowly.
In a further data set the target is TRF1 (human, UniProt P54274 1-439). Briefly: EMSA.
Another data set concerns the target T3, TIN2L (UniProt Q9BSI4 1-451).
T3 sequence: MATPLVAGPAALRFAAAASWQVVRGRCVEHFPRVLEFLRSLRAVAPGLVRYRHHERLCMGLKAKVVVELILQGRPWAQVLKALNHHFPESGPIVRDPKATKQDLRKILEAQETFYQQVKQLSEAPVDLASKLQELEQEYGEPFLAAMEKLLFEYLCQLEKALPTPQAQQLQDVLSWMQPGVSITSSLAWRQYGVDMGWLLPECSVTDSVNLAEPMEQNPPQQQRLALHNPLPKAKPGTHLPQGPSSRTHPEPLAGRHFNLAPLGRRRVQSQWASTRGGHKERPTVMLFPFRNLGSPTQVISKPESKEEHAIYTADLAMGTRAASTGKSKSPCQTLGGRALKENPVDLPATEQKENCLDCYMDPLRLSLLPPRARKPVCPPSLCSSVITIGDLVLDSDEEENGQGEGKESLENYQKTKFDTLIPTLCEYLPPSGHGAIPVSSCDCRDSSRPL
Briefly: EMSA.

Another data set concerns the target T4, TIN2S (UniProt Q9BSI4-2 1-354).
T4 sequence: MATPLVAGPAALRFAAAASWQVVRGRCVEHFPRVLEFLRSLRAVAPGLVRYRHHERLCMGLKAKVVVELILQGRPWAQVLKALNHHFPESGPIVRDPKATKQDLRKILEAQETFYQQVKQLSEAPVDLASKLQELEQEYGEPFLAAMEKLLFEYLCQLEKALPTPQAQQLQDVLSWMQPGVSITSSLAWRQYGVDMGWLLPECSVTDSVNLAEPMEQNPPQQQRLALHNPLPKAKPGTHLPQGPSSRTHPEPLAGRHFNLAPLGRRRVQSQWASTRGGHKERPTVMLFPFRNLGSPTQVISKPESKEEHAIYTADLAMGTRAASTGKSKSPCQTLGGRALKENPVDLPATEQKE
Briefly: EMSA.

B1: N-terminal HA-tagged TIN2S (HA-TIN2S, 1-354 aa) (natural protein, human, UniProt Q9BSI4-2 1-354, looked up)
chain: MATPLVAGPAALRFAAAASWQVVRGRCVEHFPRVLEFLRSLRAVAPGLVRYRHHERLCMGLKAKVVVELILQGRPWAQVLKALNHHFPESGPIVRDPKATKQDLRKILEAQETFYQQVKQLSEAPVDLASKLQELEQEYGEPFLAAMEKLLFEYLCQLEKALPTPQAQQLQDVLSWMQPGVSITSSLAWRQYGVDMGWLLPECSVTDSVNLAEPMEQNPPQQQRLALHNPLPKAKPGTHLPQGPSSRTHPEPLAGRHFNLAPLGRRRVQSQWASTRGGHKERPTVMLFPFRNLGSPTQVISKPESKEEHAIYTADLAMGTRAASTGKSKSPCQTLGGRALKENPVDLPATEQKE
Regarding B1, the binding result in data set [1] was “binds”.

Take B2: the stoichiometry N (commonly the number of molecules, sites or subunits per partner or assembly) in data set [2] was 2. Moreover, in data set [3], the binding result is listed as “binds”.

B3: 48 bp telomeric dsDNA, 3 TTAGGG (dsDNA)
DNA 1: TTAGGGTTAGGGTTAGGGATGTCCAGCAAGCCAGAATTCGGCAGCGTA
DNA 2: TACGCTGCCGAATTCTGGCTTGCTGGACATCCCTAACCCTAACCCTAA
Regarding B3, the binding result with TRF1;TIN2S is given as “binds”; with TRF1;TIN2L, “binds”; with TRF1, “binds”; with TIN2L it was “no binding”; in the data set with TIN2S, “no binding”.
